B1: Lip-VIN3VEL (residues 500-603), wild type (domain or fragment)
chain: GKQGGNKRFKSRTVSLNEKPEINNAANGVGDKDLGHIVKTIRCLEEEGHIDKSFRERFLTWYSLRATHREVRVVKIFVETFMEDLSSLGQQLVDTFSESILSKR
B2: Lip-VIN3VEL (residues 500-603) I575T (domain or fragment)
chain: GKQGGNKRFKSRTVSLNEKPEINNAANGVGDKDLGHIVKTIRCLEEEGHIDKSFRERFLTWYSLRATHREVRVVKTFVETFMEDLSSLGQQLVDTFSESILSKR

Target: the molecule itself
Test: SEC-MALS

Row | Protein | binding result
1 | B1 | binds
2 | B2 | binds

Source: paper doi:10.1101/2024.02.15.580496 (bioRxiv, 2024)
